Laboratory results taken from the supplement of paper PMC10065799, “High-throughput profiling of sequence recognition by tyrosine kinases and SH2 domains using bacterial peptide display” (eLife, 2023).

Legend:
Fer (mouse) = test: phosphorylation enrichment, bacterial display (enrichment ratio); higher = better substrate or ligand; peptides without Tyr show the background
c-Src = test: as above
FGFR1 = FGFR1 (UniProt P11362); test: as above
AncSZ = test: as above
MERTK = MERTK (UniProt Q12866); test: as above
Sequence of MERTK (Q12866 whole entry, looked up): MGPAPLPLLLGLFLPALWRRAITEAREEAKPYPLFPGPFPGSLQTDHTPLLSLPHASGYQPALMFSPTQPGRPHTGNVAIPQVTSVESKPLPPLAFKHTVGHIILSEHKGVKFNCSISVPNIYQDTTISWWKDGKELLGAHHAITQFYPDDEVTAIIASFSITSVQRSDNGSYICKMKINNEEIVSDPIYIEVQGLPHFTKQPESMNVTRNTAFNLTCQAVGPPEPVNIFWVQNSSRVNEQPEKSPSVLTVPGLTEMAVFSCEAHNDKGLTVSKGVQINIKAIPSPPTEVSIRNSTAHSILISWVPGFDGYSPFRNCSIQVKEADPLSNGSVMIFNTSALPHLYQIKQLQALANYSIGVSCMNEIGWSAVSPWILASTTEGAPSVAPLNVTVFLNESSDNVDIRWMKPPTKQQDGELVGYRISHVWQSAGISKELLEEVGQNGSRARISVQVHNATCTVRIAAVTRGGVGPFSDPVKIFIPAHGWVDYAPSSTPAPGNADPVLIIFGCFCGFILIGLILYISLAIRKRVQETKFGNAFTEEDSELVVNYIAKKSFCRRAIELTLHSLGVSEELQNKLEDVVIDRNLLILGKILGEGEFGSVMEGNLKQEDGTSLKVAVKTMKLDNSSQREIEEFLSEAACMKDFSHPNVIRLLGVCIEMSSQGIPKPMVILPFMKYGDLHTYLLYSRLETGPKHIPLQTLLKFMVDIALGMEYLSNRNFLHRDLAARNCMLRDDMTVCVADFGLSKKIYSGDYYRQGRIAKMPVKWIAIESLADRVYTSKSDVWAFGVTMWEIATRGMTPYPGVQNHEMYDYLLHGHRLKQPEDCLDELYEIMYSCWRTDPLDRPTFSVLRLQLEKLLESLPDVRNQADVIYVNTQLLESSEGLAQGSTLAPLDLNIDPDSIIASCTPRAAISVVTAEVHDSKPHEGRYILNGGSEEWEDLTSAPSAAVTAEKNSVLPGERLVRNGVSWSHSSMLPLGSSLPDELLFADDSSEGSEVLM

EPHB2 = EPHB2 (UniProt P29323); test: as above
Fyn = Fyn (UniProt P06241); test: as above
Sequence of Fyn (P06241 whole entry, looked up): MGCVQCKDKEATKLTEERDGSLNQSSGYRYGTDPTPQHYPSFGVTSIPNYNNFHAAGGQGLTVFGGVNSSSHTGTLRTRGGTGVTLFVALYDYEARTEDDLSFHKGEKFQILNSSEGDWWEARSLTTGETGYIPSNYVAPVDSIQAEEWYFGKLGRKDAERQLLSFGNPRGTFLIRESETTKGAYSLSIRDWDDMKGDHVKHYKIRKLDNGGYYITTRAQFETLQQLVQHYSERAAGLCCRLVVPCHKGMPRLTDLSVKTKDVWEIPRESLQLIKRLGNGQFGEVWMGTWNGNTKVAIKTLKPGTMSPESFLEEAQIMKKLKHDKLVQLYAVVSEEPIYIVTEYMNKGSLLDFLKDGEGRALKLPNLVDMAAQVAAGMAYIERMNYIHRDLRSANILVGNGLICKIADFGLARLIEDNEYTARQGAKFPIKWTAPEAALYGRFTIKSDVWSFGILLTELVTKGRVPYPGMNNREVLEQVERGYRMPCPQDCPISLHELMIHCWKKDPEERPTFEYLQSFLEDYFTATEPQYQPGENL

Fes = Fes (UniProt P07332); test: as above
Sequence of Fes (P07332 whole entry, looked up): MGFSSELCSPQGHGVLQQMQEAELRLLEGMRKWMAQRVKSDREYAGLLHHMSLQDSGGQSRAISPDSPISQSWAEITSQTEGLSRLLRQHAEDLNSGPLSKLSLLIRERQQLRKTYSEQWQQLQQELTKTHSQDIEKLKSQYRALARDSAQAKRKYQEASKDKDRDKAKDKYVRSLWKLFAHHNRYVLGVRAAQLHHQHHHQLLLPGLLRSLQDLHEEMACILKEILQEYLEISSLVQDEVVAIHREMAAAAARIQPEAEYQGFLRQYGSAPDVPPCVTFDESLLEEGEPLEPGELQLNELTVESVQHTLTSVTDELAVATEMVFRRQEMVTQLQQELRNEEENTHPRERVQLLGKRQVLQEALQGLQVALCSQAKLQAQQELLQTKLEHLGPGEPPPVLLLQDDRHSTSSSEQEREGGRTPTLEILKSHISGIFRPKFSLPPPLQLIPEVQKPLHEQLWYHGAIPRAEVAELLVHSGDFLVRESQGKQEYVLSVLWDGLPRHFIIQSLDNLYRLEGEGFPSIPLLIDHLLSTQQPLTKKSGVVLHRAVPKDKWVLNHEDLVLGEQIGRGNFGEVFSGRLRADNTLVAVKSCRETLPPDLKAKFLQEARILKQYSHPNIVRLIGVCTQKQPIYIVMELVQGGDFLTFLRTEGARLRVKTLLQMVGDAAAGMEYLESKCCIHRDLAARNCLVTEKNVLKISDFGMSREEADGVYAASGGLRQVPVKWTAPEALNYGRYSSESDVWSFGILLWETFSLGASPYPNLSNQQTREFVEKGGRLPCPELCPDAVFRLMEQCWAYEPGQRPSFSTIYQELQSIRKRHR

Hck = Hck (UniProt P08631); test: as above
Sequence of Hck (P08631 whole entry, looked up): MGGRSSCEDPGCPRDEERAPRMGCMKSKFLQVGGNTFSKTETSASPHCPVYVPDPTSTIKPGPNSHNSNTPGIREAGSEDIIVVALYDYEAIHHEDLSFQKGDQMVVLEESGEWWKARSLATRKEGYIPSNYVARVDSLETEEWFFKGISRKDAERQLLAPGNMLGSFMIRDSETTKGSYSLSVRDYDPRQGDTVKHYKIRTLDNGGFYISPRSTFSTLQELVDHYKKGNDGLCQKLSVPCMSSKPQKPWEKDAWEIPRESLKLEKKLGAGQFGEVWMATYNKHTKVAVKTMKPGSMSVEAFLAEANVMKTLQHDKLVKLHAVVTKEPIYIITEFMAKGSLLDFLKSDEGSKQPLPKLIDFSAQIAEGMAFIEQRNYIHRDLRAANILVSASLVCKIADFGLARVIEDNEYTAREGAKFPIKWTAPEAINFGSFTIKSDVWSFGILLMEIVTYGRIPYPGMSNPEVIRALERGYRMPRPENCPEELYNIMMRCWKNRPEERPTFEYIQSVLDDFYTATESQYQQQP

Jak2 = Jak2 (UniProt O60674); test: as above
Sequence of Jak2 (O60674 whole entry, looked up): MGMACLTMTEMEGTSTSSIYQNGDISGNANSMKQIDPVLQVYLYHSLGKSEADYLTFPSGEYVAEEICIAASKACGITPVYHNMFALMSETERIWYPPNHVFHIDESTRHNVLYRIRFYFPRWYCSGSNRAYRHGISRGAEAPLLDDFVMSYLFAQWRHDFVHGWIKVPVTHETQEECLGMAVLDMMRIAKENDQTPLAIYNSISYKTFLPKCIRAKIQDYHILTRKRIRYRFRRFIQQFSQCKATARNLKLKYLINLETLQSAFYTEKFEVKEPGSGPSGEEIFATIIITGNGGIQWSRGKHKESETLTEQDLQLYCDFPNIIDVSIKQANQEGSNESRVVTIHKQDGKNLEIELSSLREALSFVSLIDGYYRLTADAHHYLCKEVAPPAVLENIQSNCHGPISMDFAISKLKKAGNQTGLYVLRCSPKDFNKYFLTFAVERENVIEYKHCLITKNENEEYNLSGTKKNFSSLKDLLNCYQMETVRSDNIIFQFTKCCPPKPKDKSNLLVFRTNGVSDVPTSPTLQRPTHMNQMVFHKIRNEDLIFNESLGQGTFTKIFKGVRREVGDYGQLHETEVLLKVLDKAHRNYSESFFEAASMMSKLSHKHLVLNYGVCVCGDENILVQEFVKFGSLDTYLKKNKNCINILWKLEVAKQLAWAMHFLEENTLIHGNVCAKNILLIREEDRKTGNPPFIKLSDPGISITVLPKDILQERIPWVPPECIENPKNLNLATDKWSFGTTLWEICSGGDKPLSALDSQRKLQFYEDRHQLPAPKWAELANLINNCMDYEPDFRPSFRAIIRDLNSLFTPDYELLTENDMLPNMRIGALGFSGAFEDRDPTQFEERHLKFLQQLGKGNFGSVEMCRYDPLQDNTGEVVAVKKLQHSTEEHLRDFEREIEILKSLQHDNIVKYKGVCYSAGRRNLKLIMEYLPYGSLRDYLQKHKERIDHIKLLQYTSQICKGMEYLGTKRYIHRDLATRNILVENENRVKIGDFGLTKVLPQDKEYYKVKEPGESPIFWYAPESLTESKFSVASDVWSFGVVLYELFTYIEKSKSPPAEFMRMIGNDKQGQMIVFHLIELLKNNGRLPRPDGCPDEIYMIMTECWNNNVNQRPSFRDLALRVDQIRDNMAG

FGFR3 = FGFR3 (UniProt P22607); test: as above
c-Abl (mouse) = test: as above
EPHB1 = EPHB1 (UniProt P54762); test: as above
SHP2-C SH2 = test: SH2 binding enrichment of the phosphorylated peptide, bacterial display (enrichment ratio); higher = better substrate or ligand; peptides without Tyr show the background
c-Src SH2 = test: as above
Grb2 SH2 = Grb2 SH2 (UniProt P62993); test: as above
Sequence of Grb2 SH2 (P62993 whole entry, looked up, the tested form may be a part): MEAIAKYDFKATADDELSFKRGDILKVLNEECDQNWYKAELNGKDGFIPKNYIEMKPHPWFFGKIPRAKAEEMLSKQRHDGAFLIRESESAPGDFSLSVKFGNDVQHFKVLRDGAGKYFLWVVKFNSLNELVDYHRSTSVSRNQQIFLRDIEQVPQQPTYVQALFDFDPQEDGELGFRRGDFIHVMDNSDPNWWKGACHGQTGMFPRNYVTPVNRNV
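Wherever SH2 binding enrichment of the phosphorylated peptide, bacterial display is given: peptide library displayed on the E. coli surface as eCPX fusions, selected cells deep-sequenced, score is each peptide's frequency after selection divided by its frequency in the input.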
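Wherever phosphorylation enrichment, bacterial display is given: 11-residue human phosphosite peptides and single-mutation variants displayed on the E. coli surface, counted by deep sequencing, each peptide's frequency after selection divided by its frequency in the unselected input library; frequency after pTyr selection over input frequency; kinase dosed for 20-30% of maximal phosphorylation in three min.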

Sequence of FGFR1 (P11362 whole entry, looked up): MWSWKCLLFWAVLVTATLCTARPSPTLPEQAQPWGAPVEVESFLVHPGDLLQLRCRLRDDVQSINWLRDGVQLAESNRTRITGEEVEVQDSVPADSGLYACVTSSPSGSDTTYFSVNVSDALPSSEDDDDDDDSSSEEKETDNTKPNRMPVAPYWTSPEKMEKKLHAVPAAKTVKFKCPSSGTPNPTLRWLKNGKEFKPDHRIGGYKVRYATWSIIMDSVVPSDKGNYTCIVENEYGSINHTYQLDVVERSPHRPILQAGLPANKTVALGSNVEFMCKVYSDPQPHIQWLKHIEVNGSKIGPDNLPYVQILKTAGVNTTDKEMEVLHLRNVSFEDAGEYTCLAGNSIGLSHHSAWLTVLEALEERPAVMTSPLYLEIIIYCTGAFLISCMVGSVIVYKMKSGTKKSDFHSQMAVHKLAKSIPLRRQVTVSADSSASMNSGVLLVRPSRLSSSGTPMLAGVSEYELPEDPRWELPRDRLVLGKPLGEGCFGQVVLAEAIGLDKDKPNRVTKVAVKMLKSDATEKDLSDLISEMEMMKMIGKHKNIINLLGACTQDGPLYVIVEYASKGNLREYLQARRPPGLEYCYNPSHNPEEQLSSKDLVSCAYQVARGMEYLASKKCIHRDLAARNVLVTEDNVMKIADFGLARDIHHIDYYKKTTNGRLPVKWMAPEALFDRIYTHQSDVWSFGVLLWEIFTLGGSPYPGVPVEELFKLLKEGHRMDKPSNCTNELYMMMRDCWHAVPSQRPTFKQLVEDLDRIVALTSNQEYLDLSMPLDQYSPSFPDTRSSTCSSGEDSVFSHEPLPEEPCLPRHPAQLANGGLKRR

Sequence	phosphorylation enrichment (Fer (mouse))	phosphorylation enrichment (c-Src)	phosphorylation enrichment (FGFR1)	phosphorylation enrichment (AncSZ)	phosphorylation enrichment (MERTK)	phosphorylation enrichment (EPHB2)	phosphorylation enrichment (Fyn)	phosphorylation enrichment (Fes)	phosphorylation enrichment (Hck)	phosphorylation enrichment (Jak2)	phosphorylation enrichment (FGFR3)	phosphorylation enrichment (c-Abl (mouse))	phosphorylation enrichment (EPHB1)	SH2 binding enrichment (SHP2-C SH2)	SH2 binding enrichment (c-Src SH2)	SH2 binding enrichment (Grb2 SH2)
IYRASYYRKGG [ALK_Y1282]	0.45	0.557	0.414	0.615	0.621	0.481	0.513	0.622	0.476	0.753	0.403	0.676	0.419	0.702	0.528	0.825
SRPTQYSSFAC [SPEM2_Y104_S108A]	0.435	0.665	0.482	0.66	0.519	0.494	0.563	0.727	0.511	0.733	0.533	0.736	0.362	2.18	0.825	0.984
ERNTVYSSSGV [NELL2_Y350]	0.359	0.666	0.372	0.539	0.39	0.379	0.544	0.474	0.768	0.405	0.679	0.521	0.502	0.741	0.485	0.952
LLTKVYVVEGS [ZMPSTE24_Y253_P248L]	0.819	0.657	0.9	1.65	0.668	0.994	0.586	2	0.795	1.23	1.23	0.773	0.816	0.66	0.456	0.795
LLPNAYIYVVQ [L1CAM_Y418_A415P]	0.539	1	1.34	2.28	1.01	1.32	1.05	2.47	0.908	1.69	1.5	1.07	1.71	0.707	0.432	0.683
TSRVLYPNDNF [PYGM_Y281_I276T]	0.432	0.415	0.545	0.64	0.408	0.424	0.456	0.7	0.558	0.638	0.436	0.51	0.456	0.771	0.643	0.922
IEDPFYGNDFD [ACP1_Y133_S137F_YF]	0.509	0.544	0.548	1.27	0.392	0.644	0.566	1.21	0.595	0.972	0.806	0.79	0.83	0.753	0.736	1.09
FSNKLHFQLEQ [PDPR_Y109_Y109H_YF]	0.43	0.491	0.482	0.976	0.51	0.509	0.471	1.18	0.398	0.889	0.509	0.709	0.473	0.938	0.482	0.917
MVSLFYGTALF [OR10C1_Y251]	1.18	2.44	0.51	1.32	0.707	0.708	2.21	1.32	1.45	1.2	0.906	1.21	0.757	0.778	0.431	0.865
QAQMDYRRWQP [MPL_Y591_L594W]	0.49	0.361	0.402	0.548	0.373	0.539	0.461	0.795	0.424	0.762	0.491	0.745	0.523	0.55	0.386	0.635
WCSNDYLGMSR [ALAS2_Y199]	0.5	0.843	1.57	1.85	0.398	0.752	0.551	0.845	0.781	3.41	1.25	0.6	0.959	0.773	0.642	0.895
RSYSPYDYQPC [TNS1_Y796]	0.894	3.15	1.27	1.52	3.28	2.31	3.66	0.912	1.29	0.789	1.06	0.668	1.81	0.638	1.26	1.2
FGSGNYNDFGN [HNRNPA2B1_Y300_YF]	0.362	0.419	0.378	0.941	0.363	0.544	0.347	0.995	0.4	0.726	0.505	0.876	1.97	0.408	0.683	0.975
FNDSTYNQQLI [ZPLD1_Y198_YF]	0.463	0.617	0.651	0.883	0.431	0.483	0.429	0.878	0.482	0.863	0.555	0.694	0.474	0.498	0.437	0.852
VYSATYHPDHW [EFCAB12_Y544_P541S]	4.14	5.17	1.33	1.02	10.3	1.13	6.37	1.24	5.4	1.05	1.18	2.06	1.06	0.788	0.634	0.97
RHPEVYHHLGV [NVL_Y290]	0.423	0.632	1.08	0.778	0.537	0.419	0.419	0.787	1.09	0.823	0.602	0.701	2.11	1.17	1.05	1
